Residue numbers refer to the chain shown, from its start.

Data on 44 molecules can be found in patent US20240123070A1 (SHANGHAI GENBASE BIOTECHNOLOGY, published 2024).

For the assay, the target named is KRAS G13D antigen (G13D-RT6, SEQ ID NO: 20) loaded on Lovo-DPA0301:DPB0501 cells (human). In words: cell-based or functional assay.

B1: B8.2.4 TCR mutant β98P-Y (TCR, V domains shown)
V domain 1: AQKITQTQPGMFVQEKEAVTLDCTYDTSDPSYGLFWYKQPSSGEMIFLIYQGSYDQQNATEGRYSLNFQKARKSANLVISASQLGDSAMYFCAMRERTGTASKLTFGTGTRLQVTL
V domain 2: DVKVTQSSRYLVKRTGEKVFLECVQDMDHENMFWYRQDPGLGLRLIYFSYDVKMKEKGDIPEGYSVSREKKERFSLILESASTNQTSMYLCASSQTVYPQHFGDGTRLSILE
Regarding B1, the “TCR Mut RLU/WT RLU” value came out at 0.25 ratio.

B2: B8.2.4 TCR mutant β95Q-W (TCR, V domains shown)
V domain 1: B1 V domain 1
V domain 2: B1 V domain 2 with Q95W, Y98P
With B2, the “TCR Mut RLU/WT RLU” value was found to be 0.88 ratio.

B3: B8.2.4 TCR mutant β95Q-R (TCR, V domains shown)
V domain 1: B1 V domain 1
V domain 2: B1 V domain 2 with Q95R, Y98P
Consider B3, for which the “TCR Mut RLU/WT RLU” value is 0.43 ratio.

B4: B8.2.4 TCR mutant β95Q-P (TCR, V domains shown)
V domain 1: B1 V domain 1
V domain 2: B1 V domain 2 with Q95P, Y98P
Take B4: the “TCR Mut RLU/WT RLU” value was found to be 0.21 ratio.

B5: B8.2.4 TCR mutant β95Q-T (TCR, V domains shown)
V domain 1: B1 V domain 1
V domain 2: B1 V domain 2 with Q95T, Y98P
As for B5, the “TCR Mut RLU/WT RLU” value was found to be 0.59 ratio.

B6: B8.2.4 TCR mutant β95Q-S (TCR, V domains shown)
V domain 1: B1 V domain 1
V domain 2: B1 V domain 2 with Q95S, Y98P
Take B6: the “TCR Mut RLU/WT RLU” value was determined as 0.61 ratio.

B7: B8.2.4 TCR mutant β96T-E (TCR, V domains shown)
V domain 1: B1 V domain 1
V domain 2: B1 V domain 2 with T96E, Y98P
Regarding B7, the “TCR Mut RLU/WT RLU” value came out at 0.06 ratio.

B8: B8.2.4 TCR mutant β96T-V (TCR, V domains shown)
V domain 1: B1 V domain 1
V domain 2: B1 V domain 2 with T96V, Y98P
For the molecule B8, the “TCR Mut RLU/WT RLU” value is 0.97 ratio.

B9: B8.2.4 TCR mutant β96T-A (TCR, V domains shown)
V domain 1: B1 V domain 1
V domain 2: B1 V domain 2 with T96A, Y98P
Regarding B9, the “TCR Mut RLU/WT RLU” value worked out at 0.77 ratio.

B10: B8.2.4 TCR mutant β95Q-N (TCR, V domains shown)
V domain 1: B1 V domain 1
V domain 2: B1 V domain 2 with Q95N, Y98P
As for B10, the “TCR Mut RLU/WT RLU” value amounted to 0.6 ratio.

B11: B8.2.4 TCR mutant β97V-F (TCR, V domains shown)
V domain 1: B1 V domain 1
V domain 2: B1 V domain 2 with V97F, Y98P
As for B11, the “TCR Mut RLU/WT RLU” value was determined as 0.31 ratio.

B12: B8.2.4 TCR mutant β95Q-C (TCR, V domains shown)
V domain 1: B1 V domain 1
V domain 2: B1 V domain 2 with Q95C, Y98P
In the case of B12, the “TCR Mut RLU/WT RLU” value was 1.14 ratio.

B13: B8.2.4 TCR mutant β96T-P (TCR, V domains shown)
V domain 1: B1 V domain 1
V domain 2: B1 V domain 2 with T96P, Y98P
Regarding B13, the “TCR Mut RLU/WT RLU” value amounted to 0.39 ratio.

B14: B8.2.4 TCR mutant β96T-G (TCR, V domains shown)
V domain 1: B1 V domain 1
V domain 2: B1 V domain 2 with T96G, Y98P
Turning to B14, the “TCR Mut RLU/WT RLU” value turned out to be 0.05 ratio.

B15: B8.2.4 TCR mutant β95Q-M (TCR, V domains shown)
V domain 1: B1 V domain 1
V domain 2: B1 V domain 2 with Q95M, Y98P
Take B15: the “TCR Mut RLU/WT RLU” value came out at 0.99 ratio.

B16: B8.2.4 TCR mutant β96T-M (TCR, V domains shown)
V domain 1: B1 V domain 1
V domain 2: B1 V domain 2 with T96M, Y98P
With B16, the “TCR Mut RLU/WT RLU” value is 0.35 ratio.

B17: B8.2.4 TCR mutant β95Q-I (TCR, V domains shown)
V domain 1: B1 V domain 1
V domain 2: B1 V domain 2 with Q95I, Y98P
As for B17, the “TCR Mut RLU/WT RLU” value was found to be 0.74 ratio.

B18: B8.2.4 TCR mutant β96T-K (TCR, V domains shown)
V domain 1: B1 V domain 1
V domain 2: B1 V domain 2 with T96K, Y98P
With B18, the “TCR Mut RLU/WT RLU” value worked out at 0.84 ratio.

B19: B8.2.4 TCR mutant β96T-H (TCR, V domains shown)
V domain 1: B1 V domain 1
V domain 2: B1 V domain 2 with T96H, Y98P
On to B19, for which the “TCR Mut RLU/WT RLU” value was found to be 0.82 ratio.

B20: B8.2.4 TCR mutant β96T-S (TCR, V domains shown)
V domain 1: B1 V domain 1
V domain 2: B1 V domain 2 with T96S, Y98P
As for B20, the “TCR Mut RLU/WT RLU” value was 0.8 ratio.

B21: B8.2.4 TCR mutant β96T-I (TCR, V domains shown)
V domain 1: B1 V domain 1
V domain 2: B1 V domain 2 with T96I, Y98P
Take B21: the “TCR Mut RLU/WT RLU” value was 0.41 ratio.

B22: B8.2.4 TCR mutant β97V-D (TCR, V domains shown)
V domain 1: B1 V domain 1
V domain 2: B1 V domain 2 with V97D, Y98P
Regarding B22, the “TCR Mut RLU/WT RLU” value amounted to 0.21 ratio.

B23: B8.2.4 TCR mutant β96T-F (TCR, V domains shown)
V domain 1: B1 V domain 1
V domain 2: B1 V domain 2 with T96F, Y98P
Regarding B23, the “TCR Mut RLU/WT RLU” value turned out to be 0.42 ratio.

B24: B8.2.4 TCR mutant β95Q-E (TCR, V domains shown)
V domain 1: B1 V domain 1
V domain 2: B1 V domain 2 with Q95E, Y98P
With B24, the “TCR Mut RLU/WT RLU” value was determined as 0.81 ratio.

B25: B8.2.4 TCR mutant β95Q-V (TCR, V domains shown)
V domain 1: B1 V domain 1
V domain 2: B1 V domain 2 with Q95V, Y98P
Regarding B25, the “TCR Mut RLU/WT RLU” value stood at 0.76 ratio.

B26: B8.2.4 TCR mutant β96T-Y (TCR, V domains shown)
V domain 1: B1 V domain 1
V domain 2: B1 V domain 2 with T96Y, Y98P
With B26, the “TCR Mut RLU/WT RLU” value came to 0.4 ratio.

B27: B8.2.4 TCR mutant β95Q-L (TCR, V domains shown)
V domain 1: B1 V domain 1
V domain 2: B1 V domain 2 with Q95L, Y98P
For B27, the “TCR Mut RLU/WT RLU” value was determined as 0.64 ratio.

B28: B8.2.4 TCR mutant β96T-Q (TCR, V domains shown)
V domain 1: B1 V domain 1
V domain 2: B1 V domain 2 with T96Q, Y98P
For B28, the “TCR Mut RLU/WT RLU” value stood at 0.57 ratio.

B29: B8.2.4 TCR mutant β97V-E (TCR, V domains shown)
V domain 1: B1 V domain 1
V domain 2: B1 V domain 2 with V97E, Y98P
B29: the “TCR Mut RLU/WT RLU” value was 0.31 ratio.

B30: B8.2.4 TCR mutant β96T-C (TCR, V domains shown)
V domain 1: B1 V domain 1
V domain 2: B1 V domain 2 with T96C, Y98P
With B30, the “TCR Mut RLU/WT RLU” value is 0.78 ratio.

B31: B8.2.4 TCR mutant β96T-L (TCR, V domains shown)
V domain 1: B1 V domain 1
V domain 2: B1 V domain 2 with T96L, Y98P
As for B31, the “TCR Mut RLU/WT RLU” value amounted to 0.31 ratio.

B32: B8.2.4 TCR mutant β96T-N (TCR, V domains shown)
V domain 1: B1 V domain 1
V domain 2: B1 V domain 2 with T96N, Y98P
Regarding B32, the “TCR Mut RLU/WT RLU” value is 0.82 ratio.

B33: B8.2.4 TCR mutant β96T-D (TCR, V domains shown)
V domain 1: B1 V domain 1
V domain 2: B1 V domain 2 with T96D, Y98P
Take B33: the “TCR Mut RLU/WT RLU” value was 0.28 ratio.

B34: B8.2.4 TCR mutant β96T-W (TCR, V domains shown)
V domain 1: B1 V domain 1
V domain 2: B1 V domain 2 with T96W, Y98P
In the case of B34, the “TCR Mut RLU/WT RLU” value was determined as 0.64 ratio.

B35: B8.2.4 TCR mutant β95Q-H (TCR, V domains shown)
V domain 1: B1 V domain 1
V domain 2: B1 V domain 2 with Q95H, Y98P
As for B35, the “TCR Mut RLU/WT RLU” value was determined as 0.68 ratio.

B36: B8.2.4 TCR mutant β95Q-A (TCR, V domains shown)
V domain 1: B1 V domain 1
V domain 2: B1 V domain 2 with Q95A, Y98P
Regarding B36, the “TCR Mut RLU/WT RLU” value is 0.86 ratio.

B37: B8.2.4 TCR mutant β95Q-D (TCR, V domains shown)
V domain 1: B1 V domain 1
V domain 2: B1 V domain 2 with Q95D, Y98P
On to B37, for which the “TCR Mut RLU/WT RLU” value was 0.6 ratio.

B38: B8.2.4 TCR mutant β97V-C (TCR, V domains shown)
V domain 1: B1 V domain 1
V domain 2: B1 V domain 2 with V97C, Y98P
As for B38, the “TCR Mut RLU/WT RLU” value was determined as 0.37 ratio.

B39: B8.2.4 TCR mutant β97V-A (TCR, V domains shown)
V domain 1: B1 V domain 1
V domain 2: B1 V domain 2 with V97A, Y98P
Turning to B39, the “TCR Mut RLU/WT RLU” value was determined as 0.56 ratio.

B40: B8.2.4 TCR mutant β96T-R (TCR, V domains shown)
V domain 1: B1 V domain 1
V domain 2: B1 V domain 2 with T96R, Y98P
On to B40, for which the “TCR Mut RLU/WT RLU” value worked out at 0.49 ratio.

B41: B8.2.4 TCR mutant β95Q-Y (TCR, V domains shown)
V domain 1: B1 V domain 1
V domain 2: B1 V domain 2 with Q95Y, Y98P
With B41, the “TCR Mut RLU/WT RLU” value came to 0.92 ratio.

B42: B8.2.4 TCR mutant β95Q-G (TCR, V domains shown)
V domain 1: B1 V domain 1
V domain 2: B1 V domain 2 with Q95G, Y98P
Regarding B42, the “TCR Mut RLU/WT RLU” value worked out at 1.03 ratio.

B43: B8.2.4 TCR mutant β95Q-K (TCR, V domains shown)
V domain 1: B1 V domain 1
V domain 2: B1 V domain 2 with Q95K, Y98P
On to B43, for which the “TCR Mut RLU/WT RLU” value was 0.3 ratio.

B44: B8.2.4 TCR mutant β95Q-F (TCR, V domains shown)
V domain 1: B1 V domain 1
V domain 2: B1 V domain 2 with Q95F, Y98P
B44: the “TCR Mut RLU/WT RLU” value stood at 0.34 ratio.
